In paper doi:10.1101/2023.03.23.533910 (bioRxiv, 2023):

Target: the molecule itself
Assay: native gel or EMSA

B1: 3xHA-tagged SNC1 (natural protein, Arabidopsis thaliana, UniProt O23530 1-1437, looked up)
chain: MMDTSKDDDMEIASSSGSRRYDVFPSFRGEDVRDSFLSHLLKELRGKAITFIDDEIERSRSIGPELLSAIKESRIAIVIFSKNYASSTWCLNELVEIHKCYTNLNQMVIPIFFHVDASEVKKQTGEFGKVFEETCKAKSEDEKQSWKQALAAVAVMAGYDLRKWPSEAAMIEELAEDVLRKTMTPSDDFGDLVGIENHIEAIKSVLCLESKEARIMVGIWGQSGIGKSTIGRALYSKLSIQFHHRAFITYKSTSGSDVSGMKLRWEKELLSEILGQKDIKIEHFGVVEQRLKQQKVLILLDDVDSLEFLKTLVGKAEWFGSGSRIIVITQDRQLLKAHEIDLIYEVEFPSEHLALTMLCRSAFGKDSPPDDFKELAFEVAKLAGNLPLGLSVLGSSLKGRTKEWWMEMMPRLRNGLNGDIMKTLRVSYDRLHQKDQDMFLYIACLFNGFEVSYVKDLLKDNVGFTMLTEKSLIRITPDGYIEMHNLLEKLGREIDRAKSKGNPGKRRFLTNFEDIHEVVTEKTGTETLLGIRLPFEEYFSTRPLLIDKESFKGMRNLQYLEIGYYGDLPQSLVYLPLKLRLLDWDDCPLKSLPSTFKAEYLVNLIMKYSKLEKLWEGTLPLGSLKEMNLRYSNNLKEIPDLSLAINLEELDLVGCKSLVTLPSSIQNATKLIYLDMSDCKKLESFPTDLNLESLEYLNLTGCPNLRNFPAIKMGCSDVDFPEGRNEIVVEDCFWNKNLPAGLDYLDCLTRCMPCEFRPEQLAFLNVRGYKHEKLWEGIQSLGSLEGMDLSESENLTEIPDLSKATKLESLILNNCKSLVTLPSTIGNLHRLVRLEMKECTGLEVLPTDVNLSSLETLDLSGCSSLRSFPLISTNIVWLYLENTAIEEIPSTIGNLHRLVRLEMKKCTGLEVLPTDVNLSSLETLDLSGCSSLRSFPLISESIKWLYLENTAIEEIPDLSKATNLKNLKLNNCKSLVTLPTTIGNLQKLVSFEMKECTGLEVLPIDVNLSSLMILDLSGCSSLRTFPLISTNIVWLYLENTAIEEIPSTIGNLHRLVKLEMKECTGLEVLPTDVNLSSLMILDLSGCSSLRTFPLISTRIECLYLQNTAIEEVPCCIEDFTRLTVLMMYCCQRLKTISPNIFRLTRLELADFTDCRGVIKALSDATVVATMEDHVSCVPLSENIEYIWDKLYRVAYLQEHFSFRNCFKLDRDARELILRSCFKPVALPGEEIPKYFTYRAYGDSLTVIVPQSSLSQNFLRFKACVVVEPLSKGKGFYPFLKVNVGFNGKQYQKSFSKDAELELCKTDHLFFCSFKFRSEDLPSKLNFNDVEFKFCCSNRIKECGVRLMYVSQEENNQQTTRSEKRMRMTSGTSEEDINLPYGLIVADTGLAALNMELSLGQGEPSSSTSLEGEALCVDYMITEEQDKGIPILFPVSGN
stoichiometry N: ~4
